According to patent publication US20240166702A1 (published 2024):

Target: EGFR kinase domain (UniProt P00533 696-1022, fluorescent dye attached through the His-tag)
Experiment: MST

B1: Sorting Nexin 1 (SNX1) Bar domain (other)
chain: MNESDIWFEEKLQEVECEEQRLRKLHAVVETLVNHRKELALNTAQFAKSLAMLGSSEDNTALSRALSQLAEVEEKIEQLHQEQANNDFFLLAELLSDYIRLLAIVRAAFDQRMKTWQRWQDAQATLQKKREAEARLLWANKPDKLQQAKDEILEWESRVTQYERDFERISTVVRKEVIRFEKEKSKDFKNHVIKYLETLLYSQQQLAKYWEAFLPEAKAIS
With B1 as the binder, how does the Kd read?
The Kd was 2.9 µM.
